B1: Lysosomal cobalamin transport escort protein LMBD1 (Homo sapiens), Q9NUN5 (parent)
chain: MATSGAASAELVIGWCIFGLLLLAILAFCWIYVRKYQSRRESEVVSTITAIFSLAIALITSALLPVDIFLVSYMKNQNGTFKDWANANVSRQIEDTVLYGYYTLYSVILFCVFFWIPFVYFYYEEKDDDDTSKCTQIKTALKYTLGFVVICALLLLVGAFVPLNVPNNKNSTEWEKVKSLFEELGSSHGLAALSFSISSLTLIGMLAAITYTAYGMSALPLNLIKGTRSAAYERLENTEDIEEVEQHIQTIKSKSKDGRPLPARDKRALKQFEERLRTLKKRERHLEFIENSWWTKFCGALRPLKIVWGIFFILVALLFVISLFLSNLDKALHSAGIDSGFIIFGANLSNPLNMLLPLLQTVFPLDYILITIIIMYFIFTSMAGIRNIGIWFFWIRLYKIRRGRTRPQALLFLCMILLLIVLHTSYMIYSLAPQYVMYGSQNYLIETNITSDNHKGNSTLSVPKRCDADAPEDQCTVTRTYLFLHKFWFFSAAYYFGNWAFLGVFLIGLIVSCCKGKKSVIEGVDEDSDISDDEPSVYSA
partner: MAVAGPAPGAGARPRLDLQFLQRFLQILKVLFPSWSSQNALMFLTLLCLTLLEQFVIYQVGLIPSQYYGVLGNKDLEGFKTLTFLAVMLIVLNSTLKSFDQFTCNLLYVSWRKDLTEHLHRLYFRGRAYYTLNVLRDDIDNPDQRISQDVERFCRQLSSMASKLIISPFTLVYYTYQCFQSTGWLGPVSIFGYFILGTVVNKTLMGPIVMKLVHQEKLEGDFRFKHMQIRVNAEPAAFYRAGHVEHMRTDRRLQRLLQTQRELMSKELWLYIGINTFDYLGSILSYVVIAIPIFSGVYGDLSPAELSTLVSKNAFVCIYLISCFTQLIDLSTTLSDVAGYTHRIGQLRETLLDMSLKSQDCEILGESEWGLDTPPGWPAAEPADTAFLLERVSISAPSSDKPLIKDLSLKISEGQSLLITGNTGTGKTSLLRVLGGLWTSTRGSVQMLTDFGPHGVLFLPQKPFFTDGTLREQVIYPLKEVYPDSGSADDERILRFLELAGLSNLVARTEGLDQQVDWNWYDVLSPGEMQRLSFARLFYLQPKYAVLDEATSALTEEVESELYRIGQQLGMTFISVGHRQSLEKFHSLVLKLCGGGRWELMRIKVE

The variants in this assay derive from B1. The following applies: with abcd4_human ABCD4, O14678.
As to Y232A;E233A;R234A;L235A, the “effect of a mutation on the interaction” value is listed as “with no effect”.

As for W294A;T295A;K296A;F297A, the “effect of a mutation on the interaction” value is given as “with no effect”.

(Values after IntAct's records for PubMed 27456980.)
